Target: peptidase domain (PD) of human ACE2 (human) (UniProt Q9BYF1)
Experiment: BLI

RBD (319-541 a.a) of S protein from SARS-CoV-2 Omicron variant BA.2 (domain or fragment)
Kd: 16 nM

— article PMC11374805
